Source: patent US20210187118A1 (Daiichi Sankyo, published 2021)
Positions count from the first letter of the chain named. Names and notes keep the numbering of the source.

B1: PankoMab-ADC (antibody, human IgG1, kappa, V domains shown)
VH: EVQLVESGGGLVQPGGSMRLSCVASGFPFSNYWMNWVRQAPGKGLEWVGEIRLKSNNYTTHYAESVKGRFTISRDDSKNSLYLQMNSLKTEDTAVYYCTRHYYFDYWGQGTLVTVSS
VL: DIVMTQSPLSNPVTPGEPASISCRSSKSLLHSNGITYFFWYLQKPGQSPQLLIYQMSNLASGVPDRFSGSGSGTDFTLRISRVEAEDVGVYYCAQNLELPPTFGQGTKVEIKR
modifications: drug-linker of Formula 2 bound by thioether bonds; drug-linker of Formula 2 (maleimide-GGFG linker with DXd/exatecan derivative) bound by thioether bonds; average approximately 8 drug molecules per antibody; Fab N-glycan on Asn54 (position 57)
B2: PM-N54Q-ADC (antibody, human IgG1, kappa, V domains shown)
VH: B1 VH with N57Q
VL: B1 VL
modifications: drug-linker of Formula 2 bound by thioether bonds; drug-linker of Formula 2 (maleimide-GGFG linker with DXd/exatecan derivative) bound by thioether bonds; average approximately 8 drug molecules per antibody

Target: TA-MUC1 (tumor-associated MUC1) on human tumor cells (human, UniProt P15941 24-1255, aberrant tumor-associated O-glycosylation)
Sequence (P15941 24-1255): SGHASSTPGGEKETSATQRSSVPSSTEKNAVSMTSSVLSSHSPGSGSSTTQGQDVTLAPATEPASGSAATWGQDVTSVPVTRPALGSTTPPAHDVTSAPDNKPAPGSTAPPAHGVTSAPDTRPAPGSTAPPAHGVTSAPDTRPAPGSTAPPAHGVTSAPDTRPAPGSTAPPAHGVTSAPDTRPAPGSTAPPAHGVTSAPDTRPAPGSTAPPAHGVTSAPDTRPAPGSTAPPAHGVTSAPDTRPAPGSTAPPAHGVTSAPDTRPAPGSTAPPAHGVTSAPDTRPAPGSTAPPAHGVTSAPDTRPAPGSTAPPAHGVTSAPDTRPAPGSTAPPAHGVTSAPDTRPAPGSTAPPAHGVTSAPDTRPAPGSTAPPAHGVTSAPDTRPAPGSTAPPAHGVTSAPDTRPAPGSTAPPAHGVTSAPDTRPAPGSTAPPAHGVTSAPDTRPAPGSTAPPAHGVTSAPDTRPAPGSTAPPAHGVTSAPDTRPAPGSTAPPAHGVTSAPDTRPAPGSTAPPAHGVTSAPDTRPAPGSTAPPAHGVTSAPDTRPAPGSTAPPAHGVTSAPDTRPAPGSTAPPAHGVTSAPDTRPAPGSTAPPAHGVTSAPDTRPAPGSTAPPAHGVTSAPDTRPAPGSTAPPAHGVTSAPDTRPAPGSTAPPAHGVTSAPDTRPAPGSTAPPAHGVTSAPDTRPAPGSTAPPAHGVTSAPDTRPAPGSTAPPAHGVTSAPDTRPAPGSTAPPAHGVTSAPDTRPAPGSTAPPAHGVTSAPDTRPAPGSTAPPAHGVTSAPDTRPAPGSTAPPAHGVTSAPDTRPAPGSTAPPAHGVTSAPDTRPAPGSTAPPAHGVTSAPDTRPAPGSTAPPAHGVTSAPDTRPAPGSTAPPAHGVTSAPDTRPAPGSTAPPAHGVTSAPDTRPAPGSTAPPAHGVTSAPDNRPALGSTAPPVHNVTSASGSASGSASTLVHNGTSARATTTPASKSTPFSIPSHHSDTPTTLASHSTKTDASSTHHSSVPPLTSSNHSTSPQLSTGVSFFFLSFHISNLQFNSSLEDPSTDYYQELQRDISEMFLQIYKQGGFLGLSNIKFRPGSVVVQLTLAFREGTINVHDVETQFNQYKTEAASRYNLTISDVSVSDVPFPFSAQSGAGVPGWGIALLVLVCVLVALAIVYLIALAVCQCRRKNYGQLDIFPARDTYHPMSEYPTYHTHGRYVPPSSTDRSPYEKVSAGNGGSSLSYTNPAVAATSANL
Assay: cell-based or functional assay

| Binder | IC50 of cytotoxic activity (cell viability, ATP assay, 6 days) on TA-MUC1 positive MDA-MB-468 cells [nM] | cytotoxic activity on HPAC and NCI-H441 cells, fold against PankoMab-ADC [fold] | potency ratio of PM-N54Q-ADC to PankoMab-ADC, cytotoxic activity on HPAC cells [ratio] | potency ratio of PM-N54Q-ADC to PankoMab-ADC, cytotoxic activity on NCI-H441 cells [ratio] |
| --- | --- | --- | --- | --- |
| B1 | < 10 | – | – | – |
| B2 | – | > 1.5 | 1.92 | 1.66 |
